Laboratory results as given in patent publication US20160024208A1 (Regeneron, published 2016).

T1: C-term Biotin Nav1.7 (3-1) peptide, human (human, not fully specified; C-terminal biotin attached via a G4S linker)
T1 construct: Synthetic peptide; also called Human Nav1.7 3-1 C-term biotin
T1 peptide: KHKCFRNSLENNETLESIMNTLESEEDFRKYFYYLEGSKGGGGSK

T2: Native Nav1.7 (3-1) peptide, human (human)
T2 construct: Synthetic peptide (Celtek), unbiotinylated; also called Human Nav1.7 3-1 native; Nav1.7 3-1 native peptide
T2 peptide: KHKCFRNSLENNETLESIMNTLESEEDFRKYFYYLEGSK

T3: N-Term Biotin Nav1.7 (3-1) peptide, mulatta (mulatta (monkey), not fully specified; N-terminal biotin attached via a G4S linker)
T3 construct: Synthetic peptide; also called Mulatta Nav1.7 3-1 N-term biotin; monkey
T3 peptide: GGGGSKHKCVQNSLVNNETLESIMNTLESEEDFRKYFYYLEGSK

T4: Native Nav1.7 (3-1) peptide, rat (rat)
T4 construct: Synthetic peptide; also called Rat Nav1.7 3-1 native
T4 peptide: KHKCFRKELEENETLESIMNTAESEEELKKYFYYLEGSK

T5: N-Term Biotin Nav1.7 (3-1) peptide, mouse (mouse, not fully specified; N-terminal biotin attached via a G4S linker)
T5 construct: Synthetic peptide; also called Mouse Nav1.7 3-1 N-term biotin
T5 peptide: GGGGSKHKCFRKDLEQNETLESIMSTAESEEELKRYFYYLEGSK

T6: N-Term Biotin-Nav1.7 (3-1) peptide, human (human, not fully specified; N-terminal biotin attached via a G4S linker)
T6 construct: ELISA peptide
T6 peptide: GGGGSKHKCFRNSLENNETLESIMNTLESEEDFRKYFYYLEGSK


What was measured:
[1] = target: T1, C-term Biotin Nav1.7 (3-1) peptide, …; test: SPR, captured biotin-peptide, antibody analyte
Procedure: (§1) The binding affinities of anti-Naᵥ 1.7 antibodies to Naᵥ 1.7 loop peptides were determined by Biacore. For monovalent kinetic experiments, antibodies were captured through the Fc region via a goat anti-Fc-coupled biosensor surface, and the peptides (as analyte) were injected over this captured antibody surface. For bivalent (avidity-driven) kinetic experiments, biotinylated peptides corresponding to the Naᵥ 1.7 3-1, 3-3, or paddle loop sequences were captured on a NeutrAvidin sensor surface, and anti-Naᵥ 1.7 antibodies (as analyte) were injected over this surface. Following the capture step, each analyte was individually injected at several concentrations over its respective capture surface, and changes in bound surface units (RU) were monitored. The dissociation rate is independent of the concentration of analyte used in the experiment, and the dissociation rate constant (kd) was determined from the change in antibody-bound analyte RU over time. The Biacore kinetic data were obtained using a double referencing procedure. The double referencing was conducted by first subtracting any interaction of the analyte over the reference surface (i.e., the anti-Fc coupled surface alone or the NeutrAvidin surface alone), thereby correcting for nonspecific binding to capture surface and for refractive index changes. Control buffer injections (no analyte) over the antibody- or peptide-captured surfaces were also performed to allow subtraction of RU signal changes resulting from the natural dissociation of captured binding partner from the sensor surface. The kinetic parameters were obtained by globally fitting the data for all concentrations tested for a given peptide or antibody to a 1:1 binding model using Biacore T100 Evaluation Software version 2.0.2. The KD was calculated as the dissociation rate constant divided by the association rate constant (KD=kd/kₐ). The dissociative half-life (t_{1/2}) was calculated from the dissociation rate constant (t_{1/2}=In2/kd).

[2] = target: T2, Native Nav1.7 (3-1) peptide, human; test: SPR, captured antibody, peptide analyte
Procedure: as §1

[3] = target: T3, N-Term Biotin Nav1.7 (3-1) peptide, …; test: SPR, captured antibody, peptide analyte
Procedure: as §1

[4] = target: full-length human Nav1.7 fused at its N-terminus to GFP, expressed in HEK293 cells (human, UniProt Q15858 1-1988); test: cell-based or functional assay
[5] = target: T4, Native Nav1.7 (3-1) peptide, rat; test: SPR, captured antibody, peptide analyte
Procedure: as §1

[6] = target: T5, N-Term Biotin Nav1.7 (3-1) peptide, …; test: SPR, captured antibody, peptide analyte
Procedure: as §1

[7] = target: T4, Native Nav1.7 (3-1) peptide, rat; test: ELISA on coated peptide, antibody 1 ug/ml, OD450 grade
Procedure: (§2) Anti-Naᵥ 1.7 antibodies were tested for their ability to bind to the Naᵥ 1.7 peptides. The various peptides were coated overnight onto 96-well Nunc Immunosorp plates at a concentration of 4 μg/mL in PBS, followed by blocking for 1 hour in a suitable blocking agent. For biotinylated peptides, avidin was first coated on Nunc Immunosorp plates at 2 μg/mL in PBS overnight, followed by blocking as described, and the plate was then coated with biotinylated peptides at a concentration of 0.4 μg/mL and incubated for 1 hour at room temperature. Purified anti-Naᵥ 1.7 antibodies were diluted to a final concentration of 0.1 μg/mL and 1.0 μg/mL and added to the wells of the coated microtiter plates followed by incubation for 1 hour at room temperature. Bound antibodies were detected with horseradish peroxidase (HRP) conjugated anti-mouse or anti-human IgG (Jackson Immuno Research Lab, West Grove, Pa.) depending on the antibody species and developed by colorimetric response using tetramethylbenzidine (TMB) substrate (BD Biosciences). Absorbance was read at OD₄₅₀ on a plate reader for 0.1 second.
(§3) Values in Table 11 represent absolute binding ranges (at OD450) to plate-coated peptides for antibodies added at 1 μg/ml as follows: OD450<0.2: −; 0.2<OD450<1: +; 1<OD450<2: ++; 2<OD450<4: +++; NT: Not Tested.

[8] = target: T6, N-Term Biotin-Nav1.7 (3-1) peptide, …; test: as above
Procedure: as §2, §3

[9] = target: T3, N-Term Biotin Nav1.7 (3-1) peptide, …; test: as above
Procedure: as §2, §3

Binder	Kd [1] [nM]	t1/2 [1] [min]	Kd [2] [nM]	t1/2 [2] [min]	Kd [3] [nM]	t1/2 [3] [min]	Current blocking (Average % inhibition), IonWorks Quattro, 223 nM antibody [4] [%]	Kd [5] [nM]	t1/2 [5] [min]	Kd [6] [nM]	t1/2 [6] [min]	binding result [6]	binding result [5]	OD450 [7] [od]	OD450 [8] [od]	OD450 [9] [od]
H4H438B (antibody, V domains shown, Fully human antibody) VH: QVQLQQWGAGLLTPSETLSLTCAVYGGSFSGHYWSWIRQPPGKGLEWIGEINPRGSTNYKPSLKSRVTISVDTSKNQFSLNLRSVTAADTAMYYCAREGNLAARLWFFDLWGRGTLVTVSS VL: DIQMTQSPSSLSASVGDRGTITCRTSQSIRSYLNWYQQKPGKAPKLLIYAASSLQSGVPSRFSGSGSGTDFTLTISSLQPEDFATYFCQQSYSSPFTFGQGTKVEIKR	0.614	118	2.73	30.2	0.54	111	43.5	77	0.56	–	–	no binding	–	–	–	–
H4H441B (antibody, V domains shown, Fully human antibody; the full pair is used) VH: QVQLQQWGAGLLKPSETLSLTCAVYGGSFSGHYWTWIRQPPGKGLEWIGEINHRGNTNYNPSLKSRATISVDTSKNQFSLKLSSVTAADTAVYYCAREGSLAARLWFFDLWGRDTPVTVSS VL: DIQMTQSPSSLSASVGDRGTVTCRASQNIRTYLNWYQQKPGKAPKLLIYAASSLQSGVPSRFSGSGSGTDFTLTISSLQPEDFATYYCQQSYGTPYTFGQGTKVEIKR	0.703	86.9	6.58	12.5	0.439	128	–	178	0.39	–	–	no binding	–	–	–	–
H1H1025B (antibody, V domains shown, Fully human antibody; 722/724 at r244); the full pair is used) VH: QVQLVESGGGVVQPGRSLRLSCAASGFTFSNYGMHWVRQAPGKGLEWVAAIWFDGSNKKYVDSVKGRFTISRDNSKNTLYLQMNSLRAGDTAVYYCTRDRSGSFDYWGQGTLVTVSS VL: DIQLTQSPSSLSASVGDRVTITCRASQGIRNDLGWYQQKPGKAPKRLIYAASSLQSGVPSRFSGSGSGTEFTLTISSLQPEDFATYYCLQHNSYPCTFGQGTKVEIKR	–	–	–	–	–	–	–	–	–	–	–	no binding	no binding	–	–	–
H4H395B (antibody, V domains shown, Fully human antibody; 685/687 at r237); the full pair is used; also called H4H395N) VH: EVQLVESGGGLVQPGGSLRLSCAASGFTFSSYGMSWVRQVPGKGLEWVSAISGSGGSTYYVDSVKGRFTISRDNFKNTLYLQMNSLRVEDTAVYYCAKDVGYCSTTSCRGDAFDVWGQGTMVTVSS VL: not shown	0.0252	108	13.2	20.7	2.5	34	57	–	–	–	–	–	no binding	–	–	–
H4H443B (antibody, V domains shown) VH: QVQLVESGGGLVQPGRSLRLSCAASGFTFDDYAMHWVRQVPGKGLEWVSGINWNSGSIGYADSVKGRFTISRDNAKNSLFLQMNSLRAEDTALYYCAKDIEYYDILTGYYSYYIMDVWGQGTTVTVSS VL: DIQMTQSPSFLSASVGDRVTITCWASQGISSYLAWYQQKPGKAPKLLIYASSTLQSGVPSRFSGSGSGTEFTLTISSLQPEDFATYYCQQFNSYPPTFGQGTKVEIKR	–	–	–	–	–	–	–	176	0.48	–	–	–	–	1 to 2	–	–
H4H385B (antibody, V domains shown, Fully human antibody) VH: QVQLVESGGGVVQPGRSLRLSCAASGFTFSSYGMHWVRQAPGKGLEWVALISYVGSNKHYADSVKGRFTISRDNSKNTLYLQMNSLRAEDTAVYYCAKSRGYSYGLDYWGQGTLVTVSS VL: DIQMTQSPDSLAVSLGERATINCKSSQTVLHSSNNQNNLVWYQQKPGQPPKLLIYWASTRESGVPDRFSGSGSGTDFTLTISSLQAEDVAIYYCQQYYSTPYTFGQGTKLEIKR	0.443	73.2	188	0.8	29.3	3.1	31	–	–	–	–	no binding	no binding	–	–	–
H4H391B (antibody, V domains shown) VH: QVQLVQSGGGVVQPGRSLRLSCAASGFTFSSYGMHWVRQAPGKGLEWVAVISYEGSNKHYADSVKGRFTISRDNSKNTLYLQMNSLRAEDTAVFYCAQSRGYSYGLGYWGQGTLVTVSS VL: not shown	–	–	–	–	–	–	48	–	–	–	–	–	–	–	2 to 4	2 to 4
H4H382B (antibody, V domains shown) VH: EVQLVQSGGGVVQPGRSLRLSCEASGFTFSSYGMHWVRQAPGKGLEWVAVISYDGSNKHYTDSVKGRFTISRDNSKNTLYLQMNSLRAEDTAVYFCAQSRGYSYGLGYWGQGTLVTVSS VL: DIQMTQSPDSLAVSLGERATINCKSSQSVLSSSNNENYLVWYQQKPGQPPKLLIYWASTREPGVPDRFSGGGSGTDFTLTISSLQAEDVAVYYCQQYHSIPYTFGQGTKVEIKR	1.04	92.9	38.9	3.3	13.1	6	–	–	–	–	–	–	–	–	2 to 4	2 to 4

Further lines, results first:

Kd [1] [nM]	t1/2 [1] [min]	Kd [2] [nM]	t1/2 [2] [min]	Kd [3] [nM]	t1/2 [3] [min]	Current blocking (Average % inhibition), IonWorks Quattro, 223 nM antibody [4] [%]	Kd [5] [nM]	t1/2 [5] [min]	Kd [6] [nM]	t1/2 [6] [min]	binding result [6]	binding result [5]	OD450 [7] [od]	OD450 [8] [od]	OD450 [9] [od]	Binder
200	0.3	236	0.16	42.6	0.34	34	–	–	–	–	–	–	–	–	–	H1H1068B (antibody, V domains shown, Fully human antibody; the full pair is used) VH: QVQLVQSGAEVKKPGASVKVSCKASGYTFTSYGVSWVRQAPGQGLEWMGWISAYNGNTNYAQKLQGRVTMTTDTSTSTAYMELTSLRSDDTAVYYCARNWGDYWGQGTLVTVSS VL: not shown
0.334	114	21.4	2.5	3.68	4.7	17.5	107	0.17	8.98	3.4	–	–	–	–	–	H4H434B (antibody, V domains shown, Fully human antibody) VH: QVQLVQSGGGLVQPGGSLRLSCAASGFTFSNYAMSWVRQAPGKGLEWVSAISGSGDNTYYADSVRGRFTISRDNSKNTLYLQMNSLRAEDTAIYYCAKDPHSSRWPGFFDLWGRGTLVTVSS VL: not shown
–	–	–	–	–	–	–	127	0.32	12	964	–	–	2 to 4	–	–	H4H368B (antibody, V domains shown) VH: EVQLVQSGGGVVQPGRSLRLSCAASGFTFSSYGMHWVRQAPGKGLEWVAVISYQESNKHYVDSVKGRFTISRDNSKNTLYLQMNSLRAEDTAVYYCAKSRGYSYGLGYWGQGTLVTVSS VL: not shown
